The source of these data is paper PMC6031460 (Structure (London, England : 1993), 2018).

The target in data set [1] is Mis18 C-terminal helical domain (Mis18C) (S. pombe) (UniProt Q9P802). Nature of the data set: AUC.
For data set [2], the target named is Mis16-Eic1 heterodimer (S. pombe) (UniProt O94244). Nature of the data set: AUC.
The target of data set [3] is S. pombe Mis16 (S. pombe) (UniProt O94244). Briefly: ITC. On the technique in general: Isothermal titration calorimetry measures the heat released or taken up as one component is titrated into another.
Data set [4] addresses Mis16-Eic1 heterodimer (S. pombe) (UniProt O94244). Nature of the data set: AUC. This is another data set of the same source.
The data set “AUC” deals with the molecule itself. Briefly: AUC.
The target in the next data set is T1, S. pombe Mis16 (S. pombe, UniProt O94244 1-430).
T1 sequence (looked up): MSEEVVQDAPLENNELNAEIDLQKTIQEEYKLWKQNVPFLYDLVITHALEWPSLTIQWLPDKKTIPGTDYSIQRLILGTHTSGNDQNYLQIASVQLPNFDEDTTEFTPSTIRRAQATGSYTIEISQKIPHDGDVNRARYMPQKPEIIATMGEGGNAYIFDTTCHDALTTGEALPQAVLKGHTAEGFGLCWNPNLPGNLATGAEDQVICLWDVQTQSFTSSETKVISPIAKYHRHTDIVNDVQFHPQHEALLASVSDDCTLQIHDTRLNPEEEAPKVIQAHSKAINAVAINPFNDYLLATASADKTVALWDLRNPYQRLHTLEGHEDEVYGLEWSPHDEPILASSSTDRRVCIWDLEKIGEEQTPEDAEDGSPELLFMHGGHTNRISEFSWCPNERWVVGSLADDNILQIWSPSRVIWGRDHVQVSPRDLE
Briefly: AUC.

By stoichiometry N is commonly meant a count of units in the complex or per binding partner. “Mis18 C-terminal helical domain (Mis18C) (from UniProt Q9P802 1-194) (domain or fragment)” registered a stoichiometry N in data set [1] of 2. The molecule also displayed a stoichiometry N (Mis18C per Mis16-Eic1 heterodimer) in data set [2] of 2.
For the molecule “Mis18C fused to maltose binding protein (MBP-Mis18C) (domain or fragment)”, in data set [2], the stoichiometry N (MBP-Mis18C per Mis16-Eic1 heterodimer) is 2.
As usually defined, the Kd is a measure of binding affinity in units of concentration. Low readings indicate higher affinity, high ones lower affinity. “Trx-Eic1-CT (wild-type) (from UniProt O42995 91-112) (domain or fragment)” registered a dissociation constant (Kd) in data set [3] of 20.8 nM.

B1: S. pombe Mis18 (natural protein, UniProt Q9P802 1-194, looked up)
chain: MSQTETSHSGYIDFKKESQPSVFQCKKCFQIVGDSNAWVISHREYLSFTLSDAVENSVRVEDTFKRSDDGLCVYSELSCTRCNEVIGKVYNSTPIYLDDIRDMYTFSMDKLQAYQLGNKTVNPEGLTRYQVDLEMREDIIKLKSFCLSLYEKFELHDETLRSVKETISSLKKPKIEGKEGKKEKARTYSKRTRK
Regarding B1, the stoichiometry N (Mis18 per Mis16-Eic1 heterodimer) in data set [4] is 2. The “stoichiometry N” value in “AUC” was 4.

B2: S. pombe Eic1 (natural protein, UniProt O42995 1-112, looked up)
chain: MDLMPLEKARAIEIAFDNVFHNTKIPDNLQQFDAILKRLERRRFIPTENQKPRVYETELLVLRFREFGVKDNHNHPINLHSLRSKSLIRAQGKKLDLHNRVFLRRNVRAVKM
In the case of B2, the “stoichiometry N” value with S. pombe Mis16 amounted to 1 Eic1 per Mis16.
